# Reference: the RNAGym collection of RNA variant scans (doi:10.7554/elife.80360)
# B1: HDV Ribozyme (parent)
# chain: GGCCGGCAUGGUCCCAGCCUCCUCGCUGGCGCCGGCUGGGCAACAUUCCGAGGGGACCGUCCCCUCGGUAAUGGCGAAUGGGACCCA
# Variants of: B1
# Experiment: self-cleavage, relative activity (ratio to wild type); higher = more cleavage; co-transcriptional
row,Variant,self-cleavage
1,G39U G76A,0.67
2,G39A G74U,0.176
3,C41G U60A,0.733
4,G40U A87G,0.578
5,G40A G54C,0.926
6,C41U A45G,0.575
7,C41U A45U,0.884
8,G40U A42U,0.496
9,G39A U47A,0.356
10,G39C G50A,0.246
11,G39U A45G,0.743
12,G39U U65A,0.627
13,C41U C48G,0.955
14,C41G U72A,0.499
15,C41G U72C,0.201
16,G38U G59A,0.181
17,G38U G59C,0.264
18,G40C C57A,0.295
19,G40C C57U,0.354
20,G40C C57G,0.36
21,G39C G80U,0.101

row,Variant,self-cleavage
1,G38U C49U,0.172
2,G40C U46C,0.117
3,C41A A83G,0.732
4,G39U C63G,0.507
5,G40U U46C,0.227
6,G38U C86G,0.0573
7,G38U U47G,0.166
8,G38U U47C,0.133
9,G39U C44A,0.0627
10,G39A G80C,0.145
11,G39A C61U,0.54
12,G39A C61A,0.546
13,C41A U47C,0.932
14,C41A U47G,1.08
15,G39A A45G,0.629
16,G39U C61U,0.58
17,G40A C84A,0.917
18,C41A C58G,0.935
19,C41A U69G,0.975
20,C41A U69C,0.898
21,G39C A42C,0.244

row,Variant,self-cleavage
1,C41U U79C,0.332
2,G39C U69A,0.17
3,G40A G52U,0.683
4,G40A G52A,0.858
5,G39A A87G,0.517
6,G39A A87C,0.578
7,G39U A42C,0.237
8,G39U A42U,0.378
9,G40A C41U,0.87
10,G40C C86A,0.363
11,G40C G54C,0.343
12,C41A A78U,0.354
13,G40A A70G,0.914
14,G40A A70U,0.868
15,G38U G50A,0.218
16,G38U G50U,0.352
17,C41A G73U,0.873
18,C41A G73A,0.912
19,G40C C63U,0.409
20,C41A A42C,0.739
21,C41A A42U,0.743

row,Variant,self-cleavage
1,G39C G54A,0.188
2,C41A A56G,1.15
3,G40A C62G,0.432
4,G40U C58A,0.67
5,G40U C58U,0.669
6,C41G G50A,0.911
7,C41G G50C,0.554
8,G40C A42G,0.196
9,G39U C86G,0.784
10,G40C A43G,0.136
11,G40A A51G,0.749
12,C41G C86U,0.657
13,G39U G73A,0.249
14,G39A G50A,0.445
15,C41U G73A,0.929
16,C41U G73C,0.507
17,G40A A42G,0.475
18,G39C G40A,0.695
19,G39U A43C,0.237
20,G38U U65G,0.233
21,C41A C86G,0.739
